Measured values from patent US20100015126A1, “Methods of Binding of Cross-Beta Structures By Chaperones” (priority 2006, published 2010).

Target: T1, human BiP (Homo sapiens, UniProt P11021)
T1 construct: The human BiP gene except the signal peptide encoding region was obtained from Geneart (Germany); linker […]; made in house; host or cells: HEK 293E cells, transient transfection, PABC674 vector; secreted into the medium
Assay: ELISA: binding of BiP-FLAG-His to immobilized (misfolded) protein ligands
Conditions: ligands coated at 5 μg/ml; 6BB peptides and oxLDL 50 μg/ml
Protocol: Enzyme Linked Immunosorbent Assay for Testing of Chaperone Binding to Misfolded Proteins
Binding of chaperones to immobilized (misfolded) protein ligands was determined using an enzyme linked immuno sorbent assay (ELISA) approach. For this purpose 50 μl/well of potential ligands at indicated concentrations or coat buffer only for control and background measurement purposes, were coated overnight at 4° C. or coated for 1 h at room temperature, with motion, in 50 mM NaHCO3 pH 9.6 (coat buffer). In general, ligands were coated at 5 μg/ml, unless stated otherwise. For example, BiP binding peptides 6BB# and oxLDL were coated at 50 μg/ml. Native haemoglobin (Sigma-Aldrich, H7379), albumin, IgIV Gammagard and ovalbumin controls were prepared from lyophilized stocks. The controls were prepared by dissolving lyophilized proteins at 1 mg/ml in PBS upon resuspending by pipetting, followed by a 30 minutes period at the roller device, at room temperature. The protein solutions were centrifuged for 10 minutes at 16,000*g and diluted in coat buffer. […] After 5 washes with wash buffer followed by two washes with PBS, binding of antibodies was assessed. […] Plates were read at 450 nm. Triplicates were averaged and standard deviations calculated. […] Subsequently, sub-optimal concentrations of chaperones for binding to misfolded protein ligands are determined, and these concentrations are used for inhibition studies. […]

T1 sequence (P11021 19-654): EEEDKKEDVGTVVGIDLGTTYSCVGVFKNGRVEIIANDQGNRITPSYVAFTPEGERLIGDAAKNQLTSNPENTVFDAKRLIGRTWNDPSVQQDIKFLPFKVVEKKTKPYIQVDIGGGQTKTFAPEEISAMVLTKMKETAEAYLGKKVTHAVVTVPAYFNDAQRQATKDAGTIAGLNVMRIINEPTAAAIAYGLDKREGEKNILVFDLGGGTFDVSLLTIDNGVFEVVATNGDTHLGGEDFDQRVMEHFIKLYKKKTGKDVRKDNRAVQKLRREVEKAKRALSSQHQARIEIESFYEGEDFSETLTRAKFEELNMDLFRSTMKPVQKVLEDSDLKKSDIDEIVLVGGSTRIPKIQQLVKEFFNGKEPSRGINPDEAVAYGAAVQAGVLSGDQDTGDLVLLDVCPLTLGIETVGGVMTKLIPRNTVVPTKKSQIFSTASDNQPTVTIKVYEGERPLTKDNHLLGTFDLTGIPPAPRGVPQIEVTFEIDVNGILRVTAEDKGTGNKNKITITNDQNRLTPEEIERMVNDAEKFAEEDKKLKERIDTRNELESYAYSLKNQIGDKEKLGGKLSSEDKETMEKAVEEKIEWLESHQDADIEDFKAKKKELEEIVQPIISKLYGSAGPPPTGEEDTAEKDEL

B1: dOVA standard: heat-denatured chicken ovalbumin (protein)
chain: GSIGAASMEFCFDVFKELKVHHANENIFYCPIAIMSALAMVYLGAKDSTRTQINKVVRFDKLPGFGDSIEAQCGTSVNVHSSLRDILNQITKPNDVYSFSLASRLYAEERYPILPEYLQCVKELYRGGLEPINFQTAADQARELINSWVESQTNGIIRNVLQPSSVDSQTAMVLVNAIVFKGLWEKAFKDEDTQAMPFRVTEQESKPVQMMYQIGLFRVASMASEKMKILELPFASGTMSMLVLLPDEVSGLEQLESIINFEKLTEWTSSNVMEERKIKVYLPRMKMEEKYNLTSVLMAMGITDVFSSSANLSGISSAESLKISQAVHAAHAEINEAGREVVGSAEAGVDAASVSEEFRADHPFLFCIKHIATNAVLFFGRCVSP
Binding of concentration series of BiP to coated ligand: has been established
